Source: patent publication US20230381333A1 (HANMI PHARM, published 2023)
Bridge positions count the residues as written; N and C are the ends. Square brackets hold non-standard residues; d marks the D form. Ends that are not written are not given here. * marks the point of attachment. Acetyl(2-(4-imidazolyl)) = O=C(Cc1c[nH]cn1)*; Aib = CC(C)(N)C(=O)O

T1: human GIP receptor (human, UniProt P48546 22-466)
T1 sequence (looked up): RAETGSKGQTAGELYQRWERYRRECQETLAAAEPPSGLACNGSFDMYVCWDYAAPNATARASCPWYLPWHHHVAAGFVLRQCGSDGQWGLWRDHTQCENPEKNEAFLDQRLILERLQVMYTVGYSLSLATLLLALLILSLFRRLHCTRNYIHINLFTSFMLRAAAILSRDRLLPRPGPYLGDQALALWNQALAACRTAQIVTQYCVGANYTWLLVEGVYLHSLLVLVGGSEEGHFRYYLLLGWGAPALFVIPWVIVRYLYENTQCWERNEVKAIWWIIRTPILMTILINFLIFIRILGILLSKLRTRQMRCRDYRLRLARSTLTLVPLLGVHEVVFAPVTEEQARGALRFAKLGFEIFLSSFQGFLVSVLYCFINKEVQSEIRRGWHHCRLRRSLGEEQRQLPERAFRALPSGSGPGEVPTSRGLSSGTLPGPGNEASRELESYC


The binders below were run against T1, human GIP receptor (assay: cell-based or functional assay).

Binder	In vitro activity compared to native-type peptide (%), vs GIP [%]
Y[Aib]QGTFTSDYSKYLDECRAKEFVQWLLAQKGKKNDWKHNIT (bridge 16-20) [triple agonist of SEQ ID NO: 23]	< 0.1
[Acetyl(2-(4-imidazolyl))]GQGTFTSDLSIQYEEEAQQDFVEWLKDTGPSSGAPPPSHG [triple agonist of SEQ ID NO: 20]	< 0.1
Y[Aib]QGTFTSDYSKYLDECRAKEFVQWLLDHHPSSGQPPPS (bridge 16-20) [triple agonist of SEQ ID NO: 21]	22.7
[Acetyl(2-(4-imidazolyl))]GQGTFTSDLSKQMDEERAREFIEWLLAQKPSSGAPPPSHG [triple agonist of SEQ ID NO: 17]	< 0.1
H[Aib]QGTFTSDYSKYLDERACQDFVQWLLDQGGPSSGAPPPS [triple agonist of SEQ ID NO: 27]	0.9
Y[Aib]QGTFTSDYSKALDEKAAKEFVNWLLDHHPSSGQPPPSC (bridge 16-20) [triple agonist of SEQ ID NO: 98]	47.1
[Acetyl(2-(4-imidazolyl))]GQGTFTSDLSIQYDSEHQRDFIEWLKDTGPSSGAPPPSHG [triple agonist of SEQ ID NO: 19]	< 0.1
[Acetyl(2-(4-imidazolyl))]GQGTFTSDLSKQMDSEAQQLFIEWLKNGGPSSGAPPPSHG [triple agonist of SEQ ID NO: 16]	< 0.1
Y[Aib]QGTFTSDYSKALDEKAAKEFVQWLLDQHPSSGQPPPSC (bridge 16-20) [triple agonist of SEQ ID NO: 100]	118
H[Aib]QGTFTSDCSKYLDERAAQDFVQWLLDGGPSSGAPPPS [triple agonist of SEQ ID NO: 25]	< 0.1
H[Aib]QGTFTSDCSKYLDSRAAQDFVQWLLDGGPSSGAPPPS [triple agonist of SEQ ID NO: 26]	< 0.1
[Acetyl(2-(4-imidazolyl))]GQGTFTSDLSKQMDSERAREFIEWLKNTGPSSGAPPPSHG [triple agonist of SEQ ID NO: 18]	< 0.1
Y[Aib]QGTFTSDYSKALDEKAAKEFVNWLLDQHPSSGQPPPSC (bridge 16-20) [triple agonist of SEQ ID NO: 101]	40.1
H[Aib]QGTFTSDYSKYLDEKAQKEFVQWLLDTC (bridge 16-20) [triple agonist of SEQ ID NO: 30]	0.8
H[Aib]QGTFTSDVSSYLLGQAAKQFIAWLVKGGGPSSGAPPPSC [triple agonist of SEQ ID NO: 3]	< 0.1
Y[Aib]QGTFTSDYSKYLDECRAKEFVQWLKNGGPSSGAPPPS (bridge 16-20) [triple agonist of SEQ ID NO: 24]	< 0.1
[Acetyl(2-(4-imidazolyl))]GEGTFTSDLSKYLDSRRQQLFVQWLKAGGPSSGAPPPSHG [triple agonist of SEQ ID NO: 11]	< 0.1
[Acetyl(2-(4-imidazolyl))]GEGTFISDYSIQLDEIAVQDFVEWLLAQKPSSGAPPPSHG [triple agonist of SEQ ID NO: 13]	< 0.1
Y[Aib]QGTFTSDYSKCLDEKRAKEFVQWLLDHHPSSGQPPPS (bridge 16-20) [triple agonist of SEQ ID NO: 22]	59.7
[Acetyl(2-(4-imidazolyl))]GEGTFISDLSKYMDEQAVQLFVEWLMAGGPSSGAPPPSHG [triple agonist of SEQ ID NO: 12]	< 0.1
Y[Aib]QGTFTSDYSKALDEKAAKDFVNWLLDHHPSSGQPPPSC (bridge 16-20) [triple agonist of SEQ ID NO: 99]	57.7
H[Aib]QGTFTSDVSSYLDGQAQKEFIAWLVKGC [triple agonist of SEQ ID NO: 2]	< 0.1
Y[Aib]QGTFTSDYSKALDEKAAKDFVNWLLDQHPSSGQPPPSC (bridge 16-20) [triple agonist of SEQ ID NO: 102]	58
[Acetyl(2-(4-imidazolyl))]GQGTFTSDYSIQLDEIAVRDFVEWLKNGGPSSGAPPPSHG [triple agonist of SEQ ID NO: 14]	< 0.1
H[Aib]QGTFTSDYSKYLDEKRAQEFVCWLLAQKGKKNDWKHNIT [triple agonist of SEQ ID NO: 28]	< 0.1
H[Aib]QGTFTSDYSKYLDEKAAKEFVQWLLNTC (bridge 16-20) [triple agonist of SEQ ID NO: 29]	< 0.1

The binders below were run against human GLP-1 receptor (human, UniProt P43220 24-463) (assay: cell-based or functional assay).

Binder	In vitro activity compared to native-type peptide (%), vs GLP-1 [%]
Y[Aib]QGTFTSDYSKYLDECRAKEFVQWLLAQKGKKNDWKHNIT (bridge 16-20) [triple agonist of SEQ ID NO: 23]	4.01
[Acetyl(2-(4-imidazolyl))]GQGTFTSDLSIQYEEEAQQDFVEWLKDTGPSSGAPPPSHG [triple agonist of SEQ ID NO: 20]	< 0.1
Y[Aib]QGTFTSDYSKYLDECRAKEFVQWLLDHHPSSGQPPPS (bridge 16-20) [triple agonist of SEQ ID NO: 21]	17.8
[Acetyl(2-(4-imidazolyl))]GQGTFTSDLSKQMDEERAREFIEWLLAQKPSSGAPPPSHG [triple agonist of SEQ ID NO: 17]	0.2
H[Aib]QGTFTSDYSKYLDERACQDFVQWLLDQGGPSSGAPPPS [triple agonist of SEQ ID NO: 27]	83.1
Y[Aib]QGTFTSDYSKALDEKAAKEFVNWLLDHHPSSGQPPPSC (bridge 16-20) [triple agonist of SEQ ID NO: 98]	28.1
[Acetyl(2-(4-imidazolyl))]GQGTFTSDLSIQYDSEHQRDFIEWLKDTGPSSGAPPPSHG [triple agonist of SEQ ID NO: 19]	< 0.1
[Acetyl(2-(4-imidazolyl))]GQGTFTSDLSKQMDSEAQQLFIEWLKNGGPSSGAPPPSHG [triple agonist of SEQ ID NO: 16]	2.1
Y[Aib]QGTFTSDYSKALDEKAAKEFVQWLLDQHPSSGQPPPSC (bridge 16-20) [triple agonist of SEQ ID NO: 100]	42.2
H[Aib]QGTFTSDCSKYLDERAAQDFVQWLLDGGPSSGAPPPS [triple agonist of SEQ ID NO: 25]	82.6
H[Aib]QGTFTSDCSKYLDSRAAQDFVQWLLDGGPSSGAPPPS [triple agonist of SEQ ID NO: 26]	64.5
[Acetyl(2-(4-imidazolyl))]GQGTFTSDLSKQMDSERAREFIEWLKNTGPSSGAPPPSHG [triple agonist of SEQ ID NO: 18]	< 0.1
Y[Aib]QGTFTSDYSKALDEKAAKEFVNWLLDQHPSSGQPPPSC (bridge 16-20) [triple agonist of SEQ ID NO: 101]	23.2
H[Aib]QGTFTSDYSKYLDEKAQKEFVQWLLDTC (bridge 16-20) [triple agonist of SEQ ID NO: 30]	142
H[Aib]QGTFTSDVSSYLLGQAAKQFIAWLVKGGGPSSGAPPPSC [triple agonist of SEQ ID NO: 3]	1.8
Y[Aib]QGTFTSDYSKYLDECRAKEFVQWLKNGGPSSGAPPPS (bridge 16-20) [triple agonist of SEQ ID NO: 24]	41.2
[Acetyl(2-(4-imidazolyl))]GEGTFTSDLSKYLDSRRQQLFVQWLKAGGPSSGAPPPSHG [triple agonist of SEQ ID NO: 11]	1.4
[Acetyl(2-(4-imidazolyl))]GEGTFISDYSIQLDEIAVQDFVEWLLAQKPSSGAPPPSHG [triple agonist of SEQ ID NO: 13]	< 0.1
Y[Aib]QGTFTSDYSKCLDEKRAKEFVQWLLDHHPSSGQPPPS (bridge 16-20) [triple agonist of SEQ ID NO: 22]	20.1
[Acetyl(2-(4-imidazolyl))]GEGTFISDLSKYMDEQAVQLFVEWLMAGGPSSGAPPPSHG [triple agonist of SEQ ID NO: 12]	0.4
Y[Aib]QGTFTSDYSKALDEKAAKDFVNWLLDHHPSSGQPPPSC (bridge 16-20) [triple agonist of SEQ ID NO: 99]	20.9
H[Aib]QGTFTSDVSSYLDGQAQKEFIAWLVKGC [triple agonist of SEQ ID NO: 2]	5.9
Y[Aib]QGTFTSDYSKALDEKAAKDFVNWLLDQHPSSGQPPPSC (bridge 16-20) [triple agonist of SEQ ID NO: 102]	23.3
[Acetyl(2-(4-imidazolyl))]GQGTFTSDYSIQLDEIAVRDFVEWLKNGGPSSGAPPPSHG [triple agonist of SEQ ID NO: 14]	28
H[Aib]QGTFTSDYSKYLDEKRAQEFVCWLLAQKGKKNDWKHNIT [triple agonist of SEQ ID NO: 28]	17.2
H[Aib]QGTFTSDYSKYLDEKAAKEFVQWLLNTC (bridge 16-20) [triple agonist of SEQ ID NO: 29]	38.5

These binders were tested against human GCG receptor (human, UniProt P47871 26-477) (assay: cell-based or functional assay).
Sequence of human GCG receptor (P47871 26-477): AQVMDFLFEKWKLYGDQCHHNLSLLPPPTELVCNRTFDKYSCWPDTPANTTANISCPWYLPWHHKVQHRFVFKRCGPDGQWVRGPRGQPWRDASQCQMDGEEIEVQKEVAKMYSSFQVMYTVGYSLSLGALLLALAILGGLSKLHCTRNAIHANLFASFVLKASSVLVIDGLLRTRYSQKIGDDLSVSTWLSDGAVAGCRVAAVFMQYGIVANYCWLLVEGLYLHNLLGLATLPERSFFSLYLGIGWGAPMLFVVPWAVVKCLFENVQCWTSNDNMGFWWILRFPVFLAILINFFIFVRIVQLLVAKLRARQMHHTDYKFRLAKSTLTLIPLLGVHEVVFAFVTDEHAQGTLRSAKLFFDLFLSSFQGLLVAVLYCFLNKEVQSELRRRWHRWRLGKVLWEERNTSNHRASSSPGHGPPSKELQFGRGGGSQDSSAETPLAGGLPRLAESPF

Binder	In vitro activity compared to native-type peptide (%), vs Glucagon [%]
Y[Aib]QGTFTSDYSKYLDECRAKEFVQWLLAQKGKKNDWKHNIT (bridge 16-20) [triple agonist of SEQ ID NO: 23]	9.3
[Acetyl(2-(4-imidazolyl))]GQGTFTSDLSIQYEEEAQQDFVEWLKDTGPSSGAPPPSHG [triple agonist of SEQ ID NO: 20]	< 0.1
Y[Aib]QGTFTSDYSKYLDECRAKEFVQWLLDHHPSSGQPPPS (bridge 16-20) [triple agonist of SEQ ID NO: 21]	267
[Acetyl(2-(4-imidazolyl))]GQGTFTSDLSKQMDEERAREFIEWLLAQKPSSGAPPPSHG [triple agonist of SEQ ID NO: 17]	< 0.1
H[Aib]QGTFTSDYSKYLDERACQDFVQWLLDQGGPSSGAPPPS [triple agonist of SEQ ID NO: 27]	0.8
Y[Aib]QGTFTSDYSKALDEKAAKEFVNWLLDHHPSSGQPPPSC (bridge 16-20) [triple agonist of SEQ ID NO: 98]	8.2
[Acetyl(2-(4-imidazolyl))]GQGTFTSDLSIQYDSEHQRDFIEWLKDTGPSSGAPPPSHG [triple agonist of SEQ ID NO: 19]	< 0.1
[Acetyl(2-(4-imidazolyl))]GQGTFTSDLSKQMDSEAQQLFIEWLKNGGPSSGAPPPSHG [triple agonist of SEQ ID NO: 16]	< 0.1
Y[Aib]QGTFTSDYSKALDEKAAKEFVQWLLDQHPSSGQPPPSC (bridge 16-20) [triple agonist of SEQ ID NO: 100]	12.7
H[Aib]QGTFTSDCSKYLDERAAQDFVQWLLDGGPSSGAPPPS [triple agonist of SEQ ID NO: 25]	0.1
H[Aib]QGTFTSDCSKYLDSRAAQDFVQWLLDGGPSSGAPPPS [triple agonist of SEQ ID NO: 26]	0.2
[Acetyl(2-(4-imidazolyl))]GQGTFTSDLSKQMDSERAREFIEWLKNTGPSSGAPPPSHG [triple agonist of SEQ ID NO: 18]	< 0.1
Y[Aib]QGTFTSDYSKALDEKAAKEFVNWLLDQHPSSGQPPPSC (bridge 16-20) [triple agonist of SEQ ID NO: 101]	13.9
H[Aib]QGTFTSDYSKYLDEKAQKEFVQWLLDTC (bridge 16-20) [triple agonist of SEQ ID NO: 30]	0.7
H[Aib]QGTFTSDVSSYLLGQAAKQFIAWLVKGGGPSSGAPPPSC [triple agonist of SEQ ID NO: 3]	< 0.1
Y[Aib]QGTFTSDYSKYLDECRAKEFVQWLKNGGPSSGAPPPS (bridge 16-20) [triple agonist of SEQ ID NO: 24]	9.3
[Acetyl(2-(4-imidazolyl))]GEGTFTSDLSKYLDSRRQQLFVQWLKAGGPSSGAPPPSHG [triple agonist of SEQ ID NO: 11]	< 0.1
[Acetyl(2-(4-imidazolyl))]GEGTFISDYSIQLDEIAVQDFVEWLLAQKPSSGAPPPSHG [triple agonist of SEQ ID NO: 13]	< 0.1
Y[Aib]QGTFTSDYSKCLDEKRAKEFVQWLLDHHPSSGQPPPS (bridge 16-20) [triple agonist of SEQ ID NO: 22]	140
[Acetyl(2-(4-imidazolyl))]GEGTFISDLSKYMDEQAVQLFVEWLMAGGPSSGAPPPSHG [triple agonist of SEQ ID NO: 12]	< 0.1
Y[Aib]QGTFTSDYSKALDEKAAKDFVNWLLDHHPSSGQPPPSC (bridge 16-20) [triple agonist of SEQ ID NO: 99]	14.9
H[Aib]QGTFTSDVSSYLDGQAQKEFIAWLVKGC [triple agonist of SEQ ID NO: 2]	< 0.1
Y[Aib]QGTFTSDYSKALDEKAAKDFVNWLLDQHPSSGQPPPSC (bridge 16-20) [triple agonist of SEQ ID NO: 102]	29.5
[Acetyl(2-(4-imidazolyl))]GQGTFTSDYSIQLDEIAVRDFVEWLKNGGPSSGAPPPSHG [triple agonist of SEQ ID NO: 14]	< 0.1
H[Aib]QGTFTSDYSKYLDEKRAQEFVCWLLAQKGKKNDWKHNIT [triple agonist of SEQ ID NO: 28]	1.6
H[Aib]QGTFTSDYSKYLDEKAAKEFVQWLLNTC (bridge 16-20) [triple agonist of SEQ ID NO: 29]	6
